Reference: patent US20050191293A1 (Bristol-Myers Squibb, published 2005)
Several values for one entry are separate records, joined by “and”; a condition that tells them apart may be missing. Identical values can stand only once.

Key:
[1] = target: T1, human IP-10 (interferon gamma inducible protein 10) (human, UniProt P02778 22-98); assay: cell-based or functional assay
[2] = target: T1, human IP-10 (interferon gamma inducible …); assay: cell-based or functional assay; remark: listed apart in the source
rhesus monkey IP-10 [3] = target: T2, rhesus monkey IP-10 (rhesus monkey, UniProt Q8MIZ1 22-98); assay: cell-based or functional assay
T2 sequence: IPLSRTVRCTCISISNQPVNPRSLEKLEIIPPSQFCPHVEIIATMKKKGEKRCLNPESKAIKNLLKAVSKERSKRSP

[4] = target: T1, human IP-10 (interferon gamma inducible …); assay: cell-based or functional assay; remark: listed apart in the source
[5] = target: T1, human IP-10 (interferon gamma inducible …); assay: ELISA, plate coated with 1 ug/ml antigen
Procedure: (§1) The plates were washed with PBS/Tween and then incubated with a goat-anti-human IgG Fc polyclonal antibody conjugated with horseradish peroxidase (HRP) for 1 hour at room temperature. After washing, the plates were developed with ABTS substrate (Sigma, A-1888, 0.22 mg/ml) and analyzed by spectrophotometer at OD 415-495.

rhesus monkey IP-10 [6] = target: T2, rhesus monkey IP-10; assay: ELISA, plate coated with 1 ug/ml antigen
Procedure: as §1

[7] = target: T1, human IP-10 (interferon gamma inducible …); assay: SPR (Biacore), human IP-10 on CM5 chip, 25 C
Procedure: (§2) Binding was measured by flowing the antibody in HBS EP buffer (provided by Biacore AB) at concentrations from 33-267 nM at a flow rate of 40 μl/min. The antigen-antibody association kinetics was followed for 5 minutes and the dissociation kinetics was followed for 8 minutes. The association and dissociation curves were fit to a 1:1 Langmuir binding model using BIAevaluation software (Biacore AB). Data corresponding to the initial few dozen seconds for association and dissociation phases alone were considered for curve fitting to minimize the effect of avidity. The experiments were performed at both 25° C. and 37° C.

[8] = target: T1, human IP-10 (interferon gamma inducible …); assay: SPR (Biacore), human IP-10 on CM5 chip, 37 C
Procedure: as §2

[9] = target: T1, human IP-10 (interferon gamma inducible …); assay: SPR (Biacore), extension of dissociation curve, 25 C
Procedure: as §2
(§3) The values were determined by extension of the dissociation curves to get to the time required for the 50% reduction of the Y-axis of the dissociation sensogram.

[10] = target: T1, human IP-10 (interferon gamma inducible …); assay: SPR (Biacore), extension of dissociation curve, 37 C
Procedure: as §2, §3

[11] = target: T3, human ITAC (interferon-inducible T cell alpha chemoattractant) (human, UniProt O14625 22-94); assay: SPR (Biacore), antigen on CM5 chip, 25 C; sample 6A5
T3 sequence: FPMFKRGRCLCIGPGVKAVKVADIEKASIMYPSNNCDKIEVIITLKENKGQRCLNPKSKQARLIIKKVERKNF
Procedure: (§4) The flow was then stopped and dissociation was monitored for 5 minutes. The association and dissociation curves were fit to a Langmuir binding model using BIAevaluation software (Biacore AB).

mouse IP-10 [12] = target: T4, mouse IP-10 (mouse, UniProt P17515 22-98); assay: as above
T4 construct: Bought (PeproTech 250-16)
T4 sequence: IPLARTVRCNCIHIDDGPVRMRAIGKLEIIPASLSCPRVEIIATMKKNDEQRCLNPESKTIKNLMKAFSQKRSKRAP
Procedure: as §4

rhesus monkey IP-10 [13] = target: T2, rhesus monkey IP-10; assay: SPR (Biacore), antigen on CM5 chip, antibody 133 nM, 25 C
Procedure: as §4

[14] = target: T5, human MIG (monokine induced by gamma interferon) (human, UniProt Q07325 23-125); assay: SPR (Biacore), antigen on CM5 chip, 25 C; sample 6A5 Batch 2
T5 construct: Bought (PeproTech 300-26; R&D Systems for the migration assay)
T5 sequence: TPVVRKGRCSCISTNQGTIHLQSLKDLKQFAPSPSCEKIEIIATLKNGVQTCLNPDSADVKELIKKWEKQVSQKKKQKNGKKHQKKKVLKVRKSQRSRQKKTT
Procedure: as §4

[15] = target: T1, human IP-10 (interferon gamma inducible …); assay: inhibition of 0.100 nM 125I-IP-10 binding to CXCR3-expressing 300.19 cells
Procedure: The cells were grown in RPMI media containing 10% FCS and G418 selection. Prior to use, the cells were washed twice with Hank's Balanced Salt Solution (HBSS) at 4° C. and adjusted to 4×10⁷ cells/ml. Glass fiber plates (Millipore MultiScreen®, Cat. #MAFBNOB50) were blocked with 200 μl of a 0.1% polyethyleneimine solution one day prior to the experiment. On the day of the study, the blocking buffer was aspirated by using a Millipore manifold. The plates were washed three times with 200 μl of binding buffer (50 mM HEPES, pH 7.2, 1 mM CaCl₂, 5 mM MgCl₂, 0.5% BSA). […] The plates were incubated on a plate shaker for 60 minutes at room temperature and washed three times with wash buffer (10 mM HEPES, pH 7.2, 0.5 M NaCl, 0.5% BSA) at a volume of 200 μl per wash. The plates were dried, 25 μl of scintillant was added and the plates were counted on a Wallac Microbeta Counter. Data were analyzed using Prism software and a KD was calculated.
Competition assays were run in a similar manner to the experiment described above. […] Lastly, 25 μl of cells at a density of 1×10⁶ cells per well were added and the plates were incubated on a plate shaker for 60 minutes at room temperature, washed and counted as described above. EC₅₀ values were calculated using Prism software. Kᵢ values (in nM) were determined using the formula: […]

[16] = target: T3, human ITAC (interferon-inducible T cell …); assay: SPR (Biacore), antigen on CM5 chip, 25 C
Procedure: as §4

mouse IP-10 [17] = target: T4, mouse IP-10; assay: SPR (Biacore), antigen on CM5 chip, 25 C
Procedure: as §4

[18] = target: T5, human MIG (monokine induced by gamma …); assay: ELISA, plate coated with 1 ug/ml antigen
Procedure: as §1

[19] = target: T5, human MIG (monokine induced by gamma …); assay: SPR (Biacore), antigen on CM5 chip, antibody 133 nM, 25 C
Procedure: as §4

T1 sequence (P02778 other isoform, or with tags, fused parts or gaps limits assumed): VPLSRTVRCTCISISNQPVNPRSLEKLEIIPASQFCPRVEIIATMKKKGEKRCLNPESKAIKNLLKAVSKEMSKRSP

B1: 6A5 human monoclonal antibody (antibody, V domains shown)
VH: QMQLVESGGGVVQPGRSLRLSCTASGFTFSNNGMHWVRQAPGKGLEWVAVIWFDGMNKFYVDSVKGRFTISRDNSKNTLYLEMNSLRAEDTAIYYCAREGDGSGIYYYYGMDVWGQGTTVTVSS
VL: not shown
notes: Human IgG with kappa light chain from a hybridoma; also called 6A5 Batch 2; 6A5 (Batch 2)
Question: Which results are given for B1?
Answer: IC50 (nM) for 300.19 Cells: inhibition of IP-10-induced calcium flux in 300.19 cells transfected to express CXCR3 (sample 6A5) [1]: 0.61 nM; IC50 (nM) for 300.19 Cells: inhibition of IP-10-induced calcium flux in 300.19 cells transfected to express CXCR3 (sample 6A5 Batch 2) [1]: 0.42 nM; IC50 (nM) for HPBL: inhibition of IP-10-induced calcium flux in anti-CD3 activated human PBLs that express CXCR3 (sample 6A5) [1]: 2.85 nM; IC50 (nM) for HPBL: inhibition of IP-10-induced calcium flux in anti-CD3 activated human PBLs that express CXCR3 (sample 6A5 Batch 2) [1]: 2.18 nM; THP-1 IP-10 IC50: inhibition of migration of CXCR3-expressing 300.19 cells induced by native IP-10 in THP-1 supernatant, MIG blocked by anti-MIG (sample 6A5 (Batch 2)) [2]: 0.132 mg/L; rhIP-10 IC50: inhibition of migration of CXCR3-expressing 300.19 cells induced by 100 ng/ml recombinant human IP-10 (sample 6A5 (Batch 2)) [2]: 0.156 mg/L; rrmIP-10 IC50: inhibition of migration of CXCR3-expressing 300.19 cells induced by 100 ng/ml recombinant rhesus macaque IP-10 (sample 6A5 (Batch 2)) (rhesus monkey IP-10 [3]): 0.119 mg/L; Expt. 1 IC50: inhibition of MS-CSF induced migration of CXCR3-expressing 300.19 cells, MIG neutralized by anti-MIG (sample 6A5 (Batch 2)) [4]: 0.1 mg/L; Expt. 2 IC50: inhibition of MS-CSF induced migration of CXCR3-expressing 300.19 cells, MIG neutralized by anti-MIG (sample 6A5 (Batch 2)) [4]: 0.236 mg/L; EC50 [5]: 0.035 mg/L and 0.062 mg/L; EC50 (rhesus monkey IP-10 [6]): 0.125 mg/L and 0.09 mg/L; Kd [7]: 1.2 nM and 0.96 nM; koff [7]: 3.64e-05 s⁻¹ and 3.1e-05 s⁻¹; kon [7]: 31100 M⁻¹ s⁻¹ and 32000 M⁻¹ s⁻¹; Kd [8]: 0.7 nM and 0.74 nM; koff [8]: 7.15e-05 s⁻¹ and 6.26e-05 s⁻¹; kon [8]: 102000 M⁻¹ s⁻¹ and 84100 M⁻¹ s⁻¹; Half-life (dissociation of half of the antibody-antigen complex) [9]: 5.29 h and 6.21 h; Half-life (dissociation of half of the antibody-antigen complex) [10]: 2.69 h and 3.87 h; binding result [11]: no binding (tested: 133 nM); binding result (mouse IP-10 [12]): no binding (tested: 133 nM); Kd (rhesus monkey IP-10 [13]): 1.06 nM and 1.23 nM; binding result [14]: no binding (tested: 133 nM); Ki [15]: 0.67 nM and 0.35 nM

B2: 2G1 human monoclonal antibody (antibody, V domains shown)
VH: QVQLVESGGGVVQPGRSLRLSCAASGFTFSNCGMHWVRQAPGKGLEWVALIGYDGINEYYADSVKGRFTISRDNSKNTLYLQMNSLRAEDTAVFYCARDWPEGYYNGMDVWGQGTTVTVSS
VL: not shown
notes: Human IgG with kappa light chain from a hybridoma of transgenic mice
Question: How did the “IC50 (nM) for 300.19 Cells: inhibition of IP-10-induced calcium flux in 300.19 cells transfected to express CXCR3” value [1] turn out when B2 was run?
Answer: Its value is 0.5 nM.

Question: What about the “IC50 (nM) for HPBL: inhibition of IP-10-induced calcium flux in anti-CD3 activated human PBLs that express CXCR3” value [1] of the same binder?
Answer: Its value is 2.98 nM.

Question: Does B2 bind [16]?
Answer: Result: no binding (tested: 133 nM)

Question: Does B2 bind (mouse IP-10 [17])?
Answer: Result: no binding (tested: 133 nM)

Question: What about the EC50 [5] of the same binder?
Answer: Its EC50 is 0.03 mg/L.

Question: What about the EC50 (rhesus monkey IP-10 [6]) of the same binder?
Answer: The EC50 was 0.03 mg/L.

Question: What about the EC50 [18] of the same binder?
Answer: The EC50 was 0.045 mg/L.

Question: And the Kd [7]?
Answer: The Kd was ~0.198 nM.

Question: And the koff [7]?
Answer: The koff was 7.5e-06 s⁻¹.

Question: And the kon [7]?
Answer: Its kon is 37800 M⁻¹ s⁻¹.

Question: And the Kd [8]?
Answer: The Kd was 0.34 nM.

Question: What about the koff [8] of the same binder?
Answer: The koff was 4.97e-05 s⁻¹.

Question: What about the kon [8] of the same binder?
Answer: The kon was 148000 M⁻¹ s⁻¹.

Question: And the “Half-life (dissociation of half of the antibody-antigen complex)” value [9]?
Answer: Its value is 25.7 h.

Question: And the “Half-life (dissociation of half of the antibody-antigen complex)” value [10]?
Answer: The value was 3.87 h.

Question: And the Kd (rhesus monkey IP-10 [13])?
Answer: Its Kd is 0.26 nM.

Question: What about the Kd [19] of the same binder?
Answer: The Kd was 70.1 nM.

Question: What about the Ki [15] of the same binder?
Answer: Its Ki is 0.09 nM.
